A short description of the data set: yeast display, Sf9 membrane polyspecificity reagent, FACS + sequencing; frameworks hold sequencing errors. The method, boiled down: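 Sorting gates, low and high (top ~1%), were placed on anti-HA fluorescence to track expression and on streptavidin fluorescence to track reagent binding. A clone's polyreactivity label is taken from the gate it came out of. The reagent was 10% biotinylated, detergent-solubilized Sf9 membrane, applied for 1 hour at 4 °C to galactose-induced yeast display cells.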
For “QVQLVESGGGLVQAGGSLRLSCAASGRTFLTNAMGWYRPAPGKERELVAAISSGASTNYADSVKGRFTISRDNAKNTVYLQMNSLKPEDTAVYYCAAQLTDYQSKTLSYDYWGQGTQVTVSS”, the “polyreactivity (PSR sort gate)” value is “low polyreactivity”.

On to “QVQLVESGGGLVQAGGSLRLSCAASGRTFLTNAMGWYRQAPGKERELVAAISGGGDDTFYADSVKGRFTISRDNAKNTVYLQMNSLKPEDTAVYYCAADWYTPGWRKEEEYWGQGTQVTVSS”, for which the “polyreactivity (PSR sort gate)” value is given as “low polyreactivity”.

On to “QVQLVESGGGLVQAGGSLRLSCAASGRTFLTNTMGWYRQAPGQEREWVATISNGGRTNYADSVKGRFTISRDNAKNTVYLQMNSLKPEDTAVYYCAKDYRAYHPHWYGSTFGWGQGTQVTVSS”, for which the “polyreactivity (PSR sort gate)” value is given as “high polyreactivity”.

Turning to “QVQLVESGGGLVQAGGSLRLSCAASGRTFLTYAMGWYRQAPGKERELVAAISSSGVRTYYADSVKGRFTISRDNAKNTVYLQMNSLKPEDTAVYYCAAVGTGSSLRYDYWGQGSQVTVSS”, the “polyreactivity (PSR sort gate)” value is given as “high polyreactivity”.

In the case of “QVQLVESGGGLVQAGGSLRLSCAASGRTFLVYSMGWYIQAPGKERELVAAISFSDGITYYADSVKGRFTISRDNAKNTVYLQMNRLKPEDTAVYYCATEILDYYYGSEYDYWGQGTQVTVTS”, the “polyreactivity (PSR sort gate)” value is reported as “high polyreactivity”.

With “QVQLVESGGGLVQAGGSLRLSCAASGRTFLVYVMGWYRQAPGKERELVASITYSGGSTYYADSVKGRFTISRDNAKNTVYLQMNSLKPEDTAVYYCAAAQGRQPYRARGLYYYWGQGTQVTVSS”, the “polyreactivity (PSR sort gate)” value was “high polyreactivity”.

On to “QVQLVESGGGLVQAGGSLRLSCAASGRTFLWNALGWYRQAPGKESELVARINLSGGRTYYADSVKGRFTISRDNAKNCVYLQMNSLKPEDTAVYYCAATVVRYRRDSWGQGTQVTVSS”, for which the “polyreactivity (PSR sort gate)” value is “low polyreactivity”.

Turning to “QVQLVESGGGLVQAGGSLRLSCAASGRTFLYNALGWYRQAPGKERELVAAISWSGGSTYYADSVKGRFTISRDNAKNTVYLQMNSLKPEDTAVYYCAATGRRSGFFYWGQCTQVTVSS”, the “polyreactivity (PSR sort gate)” value was “high polyreactivity”.

Regarding “QVQLVESGGGLVQAGGSLRLSCAASGRTFLYYAMGWSRQAPGKEMELVAAIRRGSSTYYADSVKGRFTISRDNAKITVYLQRNCPKPEDTAVYYCAARSFAITKYGSYDYWGQGTQVTVSS”, the “polyreactivity (PSR sort gate)” value is recorded as “high polyreactivity”.

On to “QVQLVESGGGLVQAGGSLRLSCAASGRTFLYYAMGWYRQAPGKERELVAAISSGGSTNYADSVKGRFTISRDNAKNTVYLQMNSLIPEDTAVYDCNADYTSRETSDVIYEYDYWGQATQVTVSS”, for which the “polyreactivity (PSR sort gate)” value is “low polyreactivity”.

In the case of “QVQLVESGGGLVQAGGSLRLSCAASGRTFLYYAMGWYRQAPGKERELVAGITSGGSTNYADSVKGRFTISRDNAKNTVYLQMNSLKPEETAVYYCAARYFPRIQYGRKGYDYWGQGTQVTVSS”, the “polyreactivity (PSR sort gate)” value is reported as “low polyreactivity”.

“QVQLVESGGGLVQAGGSLRLSCAASGRTFLYYAMGWYRQAPGKERELVARITLDGGSTNYADSVKGRFTISRDNAKNTVYLQMNSLKPEDTAVYYCAAQRGGPFPRVVDLYDYWGQGTQVTVSS”: the “polyreactivity (PSR sort gate)” value is “low polyreactivity”.

For “QVQLVESGGGLVQAGGSLRLSCAASGRTFLYYAMGWYRQAPGKERELVAVISRDGGSTYYADSVKGRFTISRDNAKNTVYLQMNSLKPEDTAVYYCAKRYGWASGYWNSNYGYLYDYWGQGTQVTVSS”, the “polyreactivity (PSR sort gate)” value is “high polyreactivity”.

With “QVQLVESGGGLVQAGGSLRLSCAASGRTFNHYAMGLYRQAPGKERELVAGITISGGSTYYADSVKGRFTISRDNAKNTVYLQMNSLKPEDTAVYYCNAVYEYYRHSKWTMDYWGQGTQVTVSS”, the “polyreactivity (PSR sort gate)” value is listed as “low polyreactivity”.

As to “QVQLVESGGGLVQAGGSLRLSCAASGRTFNIYDMGGYIPAPGTERELVAAITGRGTGTYYADSVKGRFTISRDNAKNTVYLQMNSLKPEDTAVYFCAAVRRWYYPALSEHDYWGQGTQVTVSS”, the “polyreactivity (PSR sort gate)” value was “low polyreactivity”.

For “QVQLVESGGGLVQAGGSLRLSCAASGRTFNLYAMGWYRQAPGKERELVAAIRYSDTSTYYADSVKGRFTISRDNAKNTVYLQMNSVKPEDTAVYYCAAYPGYKGGNYGYWGQGTKVTVSS”, the “polyreactivity (PSR sort gate)” value is listed as “low polyreactivity”.

Regarding “QVQLVESGGGLVQAGGSLRLSCAASGRTFNPYAMGWYRQAPGKERELVAAIRWRGTRTYYADSVKGRFTISRDNAKNTVYLQMNSLKPEDTAVYYCNALLGYYRWRRPVDYSYGSWGQGTQVTVSS”, the “polyreactivity (PSR sort gate)” value was “high polyreactivity”.

Turning to “QVQLVESGGGLVQAGGSLRLSCAASGRTFNQYAMGWYRQAPGKERELVAAISRRTGRTYYADSVKGRFTISRDNAKNTVYLQMNSLKPEDTAVYYCNTLYFVGPDYGYDYWGQGTQVTVSS”, the “polyreactivity (PSR sort gate)” value is on record as “high polyreactivity”.

As for “QVQLVESGGGLVQAGGSLRLSCAASGRTFNVYAMGWYRQAPGKERELVASISSSDTTNYADSVKGRFTISRDNAKNTVYIQMNSLKPEDTAVYYCAADYTPDLLSKVDYWGQGTQVTVSS”, the “polyreactivity (PSR sort gate)” value is “low polyreactivity”.

Take “QVQLVESGGGLVQAGGSLRLSCAASGRTFNVYAMGWYRQAPGKERELVAVITNGGSTNYADSVKGRFTISRDNAKNTVYLQMNSLKPEDTAVYYCAGDYYASLTREDRDDYWGQGTQVTVSS”: the “polyreactivity (PSR sort gate)” value is given as “low polyreactivity”.

Take “QVQLVESGGGLVQAGGSLRLSCAASGRTFNYYAMGWYRQAPGKERELVAAISTSGGSTYYADSVKGRFTISRDNAKNTVYLQMNSLKPEDTAVYYCNAVYRVWYAEWSTVGSPHDYWGQGTQVTVSS”: the “polyreactivity (PSR sort gate)” value is reported as “low polyreactivity”.

For “QVQLVESGGGLVQAGGSLRLSCAASGRTFNYYNMGWYRQAPGKARELVAAISRGGTTYYADSVKGRFTISRDNAKKTVYLQMNSLKPEDTAVYYCAVAYAPRVQTVWSYVSGSTYYSSGQGTQVTVSS”, the “polyreactivity (PSR sort gate)” value is reported as “high polyreactivity”.

On to “QVQLVESGGGLVQAGGSLRLSCAASGRTFNYYNMGWYRQAPGKERELVAAISRGGTTYYADSVKGRFTISRDNAKKTVYLQMNSLKPEDTAVYYCAVAYAPRVQTVWSYVSGSTYYSWGQGTQVTVSS”, for which the “polyreactivity (PSR sort gate)” value was “high polyreactivity”.

As to “QVQLVESGGGLVQAGGSLRLSCAASGRTFPAYAMGWYRQAPGKERELVAAISYSGGRTRYADSVKGRFTISRDNAMNSVYLQMNSLKPEDTAVYFCNRVIPTQSLRDYYWGQGTQVTVSS”, the “polyreactivity (PSR sort gate)” value was “high polyreactivity”.

For the sequence “QVQLVESGGGLVQAGGSLRLSCAASGRTFPDNAMGWYRQAPGKESEFVAAISSSGSTYYADSVKGRFTISRDNAKNTVYLQMNSLKPEDTAVYYCNRDDWPSYDFTGGDYWGQGTQVTVSS”, the “polyreactivity (PSR sort gate)” value is “low polyreactivity”.

Take “QVQLVESGGGLVQAGGSLRLSCAASGRTFPDYAMGWYRQAPGKERELVARISYSGGSTSYADSVKGRFTISRDNAKNTVYLQMNSLKPEDTAVYYCNRETAYAVGRFEYCGQGTQVTVSS”: the “polyreactivity (PSR sort gate)” value is “low polyreactivity”.

As for “QVQLVESGGGLVQAGGSLRLSCAASGRTFPFNAMGWYRQAPGKERELVAAIRWSGGSTYYADSVKGRFTISRDNAKNTVYLQMNSLKPEDTAVYYCAAVYPKIRSYRYGYWGQGTQVTVSS”, the “polyreactivity (PSR sort gate)” value is recorded as “high polyreactivity”.

In the case of “QVQLVESGGGLVQAGGSLRLSCAASGRTFPGNAMGWYRQAPGKERELVAAINSRGSTYYADSVKGRFTISRDNAKHTVYLKMNSLKPEDTAVYYSAAYFGHYWRYYYWGQGTQVNVSS”, the “polyreactivity (PSR sort gate)” value is “high polyreactivity”.

Take “QVQLVESGGGLVQAGGSLRLSCAASGRTFPGNAMGWYRQAPGKERELVAAISWSGTRTYYADSVKGRFTISRDNAKHTVYLQMNSLKPEDTAVYYCNVVVKGAWDYYPYDYWGQGTQVTVSS”: the “polyreactivity (PSR sort gate)” value is “high polyreactivity”.

In the case of “QVQLVESGGGLVQAGGSLRLSCAASGRTFPGNDMGWYRQAPGKERELDAAISSDDSTYYADSVKWRFTMSRDNAKNTVYLKMNSLKPEDTAVYYCNAEYYEGYIGVPGSYWPYEYWGQGTQVTVSS”, the “polyreactivity (PSR sort gate)” value is reported as “low polyreactivity”.

For the sequence “QVQLVESGGGLVQAGGSLRLSCAASGRTFPGYAMGWYRQAAGTERELVAGISYRGGSTYYADSVKGRFTISRDNAKNTVYLQMNSLKPEDTAVYYCARDYSRHKGDYWGQGTQVTVSS”, the “polyreactivity (PSR sort gate)” value was “low polyreactivity”.

Consider “QVQLVESGGGLVQAGGSLRLSCAASGRTFPGYAMGWYRQAPGKERELVAGISYRGGSTYYADSVKGRFTISRDIAKNTVYLQMNSLKPEDTAVYYCAREYSRHKGDYWGQGTQVTVSS”, for which the “polyreactivity (PSR sort gate)” value is recorded as “low polyreactivity”.

Take “QVQLVESGGGLVQAGGSLRLSCAASGRTFPINAMGWYRQAPGKERELVASIRWTDGTTYYADSVKGRFTISRDSAKNTVYLQMNSLKPEDTAVFYCAADAEGSASKYDYWGQGTQVTVSS”: the “polyreactivity (PSR sort gate)” value is reported as “low polyreactivity”.

As for “QVQLVESGGGLVQAGGSLRLSCAASGRTFPIYAMGWYRQAPGKERELVATITWNDGNTYYADSVKGRFTISRDNAKNTVYLQMNSLKPEDTAVYYCAAKGGWPWHYHYQKNSEYDYWGQGTQVTVSS”, the “polyreactivity (PSR sort gate)” value is listed as “low polyreactivity”.

Regarding “QVQLVESGGGLVQAGGSLRLSCAASGRTFPLNAMGWYRQAPGKERELVASITKSTGNTRYADSVKGRFTISRDNAKNTVYLQMNSLKPEDTAVYYCAARSYRDRYYWGQGTQVTVSS”, the “polyreactivity (PSR sort gate)” value is given as “high polyreactivity”.

“QVQLVESGGGLVQAGGSLRLSCAASGRTFPNNAMGWYRQAPGKERELVAVITWSGGSTYYADSVKGRFTISRDNAKNTVYLQMNSLKPEDTAVYYCATDYTGKWKDHYYYWGQGTQVTVSS”: the “polyreactivity (PSR sort gate)” value is listed as “low polyreactivity”.

For “QVQLVESGGGLVQAGGSLRLSCAASGRTFPRNGMGWYRQAPGKERELVAAISWSGGRTYYADSVKGRFTISRDNAKNTVYLQMNSLKPEDTAVYYCNALYFRKAGYWGKGTQVTVSS”, the “polyreactivity (PSR sort gate)” value is recorded as “high polyreactivity”.

In the case of “QVQLVESGGGLVQAGGSLRLSCAASGRTFPSNVMGWYRQAPGKEREFVAAITTRGGNTRYADSVKGRFTISRDNAKNTVYLQMNSLKPEDTAVYYCAAKVKPGYDYWGQGTQVTVSS”, the “polyreactivity (PSR sort gate)” value was “low polyreactivity”.

Take “QVQLVESGGGLVQAGGSLRLSCAASGRTFPSYTMGWYRQAPGKERELVAAISKSGGNTYYADSVKGRFTISRDNAKNTVYLQMNSLKPEDTAVYYCNADTYALGAAVIPGDEYWGQGTQVTVSS”: the “polyreactivity (PSR sort gate)” value is “low polyreactivity”.

Turning to “QVQLVESGGGLVQAGGSLRLSCAASGRTFPVNAMGWYRQAPGKERELVAAIRRRGGSTYYADSVKGRFTISRDNAKNTVYLQMNSRKPEDTAVYYCAADKSSSFSYSYGYWGHGTQVTVSS”, the “polyreactivity (PSR sort gate)” value is “low polyreactivity”.

For the origin of these results see the nanobody polyreactivity screen of Harvey et al. (2022).
